# Data published in article PMC12368637.
# Key:
# [1] = molecular target: Human cystatin C (human) (UniProt P01034); experiment: ITC; 300 uM HSA in the syringe, 30 uM HCC in the cell; PBS; 25.2 °C; MicroCal PEAQ-ITC; single set of identical sites model
# [2] = molecular target: Human serum albumin (human) (UniProt P02768); experiment: NMR (1H-15N HSQC and 15N relaxation); 15N-labelled V57G HCC with and without equimolar HSA (around 0.3 mM each); PBS, 90%/10% H2O/D2O, pH 7.0; 298 K
Substance,Kd [1] [nM],dH [1] [kcal/mol],stoichiometry N [1],percent of V57G HCC that interacted with HSA [2] [%]
Human serum albumin (from UniProt P02768 25-609) (natural protein),1150,1.88,0.642,–
V57G mutant of human cystatin C (from UniProt P01034 27-146) (natural protein),–,–,–,4
